Experiments:
[1] = biological target: T1, human CD32b expressed endogenously on human cells (human, UniProt P31994 43-310); experiment: flow cytometry on BJAB cells; biotinylated hIgG1 [N297A] antibody, streptavidin-PE, GMFI
T1 construct: whole, on cells; The background says that CD32b1 is the form on lymphoid cells and CD32b2 the form on myeloid cells; also called CD32b on primary human B cells, plasma cells, macrophages, BJAB, KARPAS422 and Daudi cells
T1 sequence (looked up): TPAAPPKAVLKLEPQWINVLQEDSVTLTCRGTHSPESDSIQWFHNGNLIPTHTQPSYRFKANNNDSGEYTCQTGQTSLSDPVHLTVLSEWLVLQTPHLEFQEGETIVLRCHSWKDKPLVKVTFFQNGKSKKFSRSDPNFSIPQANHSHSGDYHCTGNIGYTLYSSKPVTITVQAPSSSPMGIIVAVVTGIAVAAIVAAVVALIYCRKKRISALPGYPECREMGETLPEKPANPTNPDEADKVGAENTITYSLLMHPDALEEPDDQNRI
Method: The binding of huCD32b specific antibodies to the BJAB cell line was evaluated by flow cytometry. BJAB cells were collected and suspended in FACS Buffer (PBS1× containing 2% BSA, 2 mM EDTA), counted and suspended at 0.25×10⁶ cells per ml. 50'000 cells/well (200 μl) were then dispensed in V-bottomed 96 well plates. Plates were spun for 5 min at 1500 rpm and the supernatant discarded. […] Biotinylation of antibodies was performed using the Lightning-Link biotin conjugation kit (Type A) from Innova Biosciences (Cat. No 704-0010) according to the supplier's instructions. After 2 successive washes with FACS buffer, cells were suspended in 50 μl FACS buffer containing a 1/500 dilution of Streptavidin-PE (Invitrogen 521388) and further incubated for 20 min at 4° C. Cells were washed twice and suspended in 200 μl FACS buffer and acquired on a FACS Fortessa. The Geometric Mean Fluorescence (GMFI in the PE channel) was used as a measure of the binding intensity of each antibody.

[2] = biological target: T1, human CD32b expressed endogenously on …; experiment: flow cytometry titration (GMFI), biotinylated IgG1 [N297A] on purified primary human B cells, CD20+ gate
Method: Plates were spun for 5 min at 1500 rpm and the supernatant discarded. […] Biotinylation of antibodies was performed using the Lightning-Link biotin conjugation kit (Type A) from Innova Biosciences (Cat. No 704-0010) according to the supplier's instructions. […] Cells were washed twice and suspended in 200 μl FACS buffer and acquired on a FACS Fortessa.

MW82 (huCD32a H131) = biological target: T2, MW82 (huCD32a H131) (human, UniProt P12318); experiment: flow cytometry on stable CHO cells expressing huCD32a H131 (MW82); hIgG1 [N297A] antibody, GMFI
T2 sequence (receptor, looked up): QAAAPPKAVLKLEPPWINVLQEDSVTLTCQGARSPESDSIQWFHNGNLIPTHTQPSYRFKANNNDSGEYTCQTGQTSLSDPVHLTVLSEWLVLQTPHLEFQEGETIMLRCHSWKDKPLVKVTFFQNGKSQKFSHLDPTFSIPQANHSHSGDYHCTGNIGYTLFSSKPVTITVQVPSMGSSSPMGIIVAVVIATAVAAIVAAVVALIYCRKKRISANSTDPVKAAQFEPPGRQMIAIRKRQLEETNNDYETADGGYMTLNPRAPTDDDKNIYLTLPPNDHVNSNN
Method: HuCD32b and huCD32a have high degree of sequence homology. […] CHO cells were collected following detachment with PBS containing 2 mM EDTA and pelleted. Cell pellets were washed once in PBS and suspended in FACS Buffer (PBS1× containing 2% BSA, 2 mM EDTA and 0.1% NaN3), counted and suspended at 0.25×10⁶ cells per ml. 50'000 cells/well (200 μl) were then dispensed in V-bottomed 96 well plates. Plates were spun for 5 min at 1600 rpm and the supernatant discarded. […] After 3 successive washes with FACS buffer, cells were suspended in 50 μl FACS buffer containing a 1/100 dilution of the F(ab′)2 anti-human F(ab′)2-PE (Jackson Immunoresearch#109-116-097) and further incubated 30 min at 4° C. Cells were washed twice and suspended in 200 μl FACS buffer and acquired on a FACS Canto II (acquisition of 5000 cells in the live cell gate). The Geometric Mean Fluorescence (GMFI in the PE channel) was used as a measure of the binding intensity of each antibody.

[3] = biological target: T3, huCD64 (Fc gamma RI) expressed on stable CHO cells (human, UniProt P12314 16-374); experiment: flow cytometry on stable CHO cells expressing huCD64; hIgG1 [N297A] antibody, GMFI; the text ascribes this binding to the Fc portion
T3 construct: whole, on cells; also called CHO-huCD64
Method: The binding of huCD32b specific antibodies was evaluated by flow cytometry using stable CHO cell lines expressing the low affinity human CD16 variants (i.e huCD16a or huCD16b variants) and the high affinity huCD64 (FcγRI). CHO cells transfected with huCD16a variants were also transfected with the common Fcγ chain in order to allow for surface expression. CHO cells were collected following detachment with PBS containing 2 mM EDTA and pelleted. Cell pellets were washed once in PBS and suspended in FACS Buffer (PBS1× containing 2% BSA, 2 mM EDTA and 0.1% NaN3), counted and suspended at 0.25×10⁶ cells per ml. 50'000 cells/well (200 μl) were then dispensed in V-bottomed 96 well plates. Plates were spun for 5 min at 1600 rpm and the supernatant discarded. […] After 3 successive washes with FACS buffer, cells were suspended in 50 μl FACS buffer containing a 1/100 dilution of the F(ab′)2 anti-human F(ab′)2-PE (Jackson Immunoresearch#109-116-097) and further incubated 30 min at 4° C. Cells were washed twice and suspended in 200 μl FACS buffer and acquired on a FACS Canto II (acquisition of 5000 cells in the live cell gate). The Geometric Mean Fluorescence (GMFI in the PE channel) was used as a measure of the binding intensity of each antibody.

huCD32b-deglyco [4] = biological target: T4, huCD32b-deglyco (human, UniProt P31994 43-222, limits assumed, deglycosylated (deglyco) (so in the source)); experiment: SPR (Biacore T200), IgG amine-coupled on the chip, huCD32b-deglyco analyte 0.61-5000 nM, 1:1 binding model; single experiment
T4 construct: Soluble analyte of the SPR assay; also called huCD32b receptor (SPR analyte); human CD32b
T4 sequence: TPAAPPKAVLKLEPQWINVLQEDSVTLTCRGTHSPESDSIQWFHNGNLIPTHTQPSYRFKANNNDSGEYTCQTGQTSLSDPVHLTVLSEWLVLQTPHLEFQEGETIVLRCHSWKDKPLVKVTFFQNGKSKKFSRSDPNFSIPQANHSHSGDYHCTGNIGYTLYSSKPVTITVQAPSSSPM
Method: (§1) Three independent direct binding assays with IgGs covalently immobilized on the biosensor and huCD32b receptor serving as analyte were performed to determine the binding affinities of the IgGs for huCD32b. Kinetic data were acquired by subsequent injections of analyte dilution series on all flow cells. Flow cell 1 (chip 1) served as a reference.
(§2) A dilution series of huCD32b-deglyco, 0.61-5000 nM (1:2 dilution series) in running buffer was injected over the surface (flow rate: 30 μl/min, association time: 60 sec, dissociation time: 120 sec). The chip surface was regenerated with one basic wash step before each analyte injection (30 μl/min; contact time: 30 sec, stabilization period: 250 sec). Data were evaluated using the Biacore T200 evaluation software version 1.0. The raw data were double referenced, i.e. the response of the measuring flow cell was corrected for the response of the reference flow cell, and in a second step the response of a blank injection was subtracted. Outlier sensorgrams were removed if necessary. The sensorgrams were fitted by applying a 1:1 binding model to calculate kinetic rate constants and dissociation equilibrium constants. Rmax was set at global whereas RI was fitted locally. Data were processed individually for each run. The generated values were used to calculate average values and standard deviations of the respective kinetic constants.

[5] = biological target: T5, WT human CD32b1 expressed on stably transfected cells (human, UniProt P31994 43-310); experiment: flow cytometry, Alexa-647 labelled hIgG1 [N297A] antibody, ΔMFI; stable BJAB cells expressing huCD32b
T5 construct: also called huCD32b; WT CD32b
T5 sequence: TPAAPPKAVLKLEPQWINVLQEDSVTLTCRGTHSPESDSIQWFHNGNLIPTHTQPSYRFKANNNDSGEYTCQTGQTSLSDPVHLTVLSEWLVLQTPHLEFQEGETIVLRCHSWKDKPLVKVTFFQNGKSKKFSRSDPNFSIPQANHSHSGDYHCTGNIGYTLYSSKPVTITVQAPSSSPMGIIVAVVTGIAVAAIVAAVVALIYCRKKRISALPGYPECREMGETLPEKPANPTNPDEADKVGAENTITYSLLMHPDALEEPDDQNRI

huCD32b-deglyco [6] = biological target: T4, huCD32b-deglyco; experiment: SPR (Biacore T200), IgG amine-coupled on the chip, huCD32b-deglyco analyte 0.61-5000 nM, 1:1 binding model; mean and standard deviation of the runs
Method: as §1, §2

T3 sequence (P12314 16-374): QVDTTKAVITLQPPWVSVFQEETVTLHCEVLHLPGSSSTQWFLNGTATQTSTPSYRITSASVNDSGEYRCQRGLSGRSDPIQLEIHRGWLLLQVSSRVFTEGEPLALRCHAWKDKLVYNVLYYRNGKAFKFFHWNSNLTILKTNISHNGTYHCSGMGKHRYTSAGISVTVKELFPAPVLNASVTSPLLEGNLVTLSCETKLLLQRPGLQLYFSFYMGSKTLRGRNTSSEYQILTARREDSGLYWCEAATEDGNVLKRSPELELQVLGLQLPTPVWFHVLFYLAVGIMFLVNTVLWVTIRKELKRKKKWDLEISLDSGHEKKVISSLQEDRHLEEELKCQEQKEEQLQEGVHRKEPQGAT

B1: NOV0281_N297A (antibody, human IgG1, lambda, N297A)
heavy: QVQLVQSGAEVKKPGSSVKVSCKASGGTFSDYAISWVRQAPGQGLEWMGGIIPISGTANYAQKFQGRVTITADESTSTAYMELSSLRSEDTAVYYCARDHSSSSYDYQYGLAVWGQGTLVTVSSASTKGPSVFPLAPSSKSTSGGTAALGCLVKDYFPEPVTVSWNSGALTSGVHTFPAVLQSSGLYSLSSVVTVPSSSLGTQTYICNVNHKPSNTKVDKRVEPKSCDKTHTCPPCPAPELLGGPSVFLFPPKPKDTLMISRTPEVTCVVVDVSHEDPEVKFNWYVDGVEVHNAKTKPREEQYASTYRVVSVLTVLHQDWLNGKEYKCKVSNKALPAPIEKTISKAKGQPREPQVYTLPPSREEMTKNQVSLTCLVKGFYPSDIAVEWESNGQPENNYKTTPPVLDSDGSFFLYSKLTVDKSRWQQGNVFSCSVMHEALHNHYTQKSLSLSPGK
light: DIELTQPPSVSVSPGETASITCSGDKLGDYYVHWYQQKPGQAPVLVIYQDSKRPSGIPERFSGSNSGNTATLTISGTQAEDEADYYCGATDLSPWSIVFGGGTKLTVLGQPKAAPSVTLFPPSSEELQANKATLVCLISDFYPGAVTVAWKADSSPVKAGVETTTPSKQSNNKYAASSYLSLTPEQWKSHRSYSCQVTHEGSTVEKTVAPTECS
notes: also called NOV0281 on a human IgG1 [N297A] scaffold
binding affinity (printed 'BJABs:') [1]: 2.4 nM
binding affinity [2]: 5.4 nM
binding result (MW82 (huCD32a H131)): binds
binding result [3]: binds

B2: NOV0308_N297A (antibody, human IgG1, lambda, N297A)
heavy: not shown
light: DIELTQPPSVSVSPGQTASITCSGDNLGSKYVHWYQQKPGQAPVLVIYDDNKRPSGIPERFSGSNSGNTATLTISGTQAEDEADYYCQSWTLGNWVFGGGTKLTVLGQPKAAPSVTLFPPSSEELQANKATLVCLISDFYPGAVTVAWKADSSPVKAGVETTTPSKQSNNKYAASSYLSLTPEQWKSHRSYSCQVTHEGSTVEKTVAPTECS
notes: also called NOV0308 on a human IgG1 [N297A] scaffold
binding affinity (printed 'BJABs:') [1]: 4.2 nM
binding result [3]: binds

B3: NOV1216_N297A (antibody, human IgG1, lambda, N297A)
heavy: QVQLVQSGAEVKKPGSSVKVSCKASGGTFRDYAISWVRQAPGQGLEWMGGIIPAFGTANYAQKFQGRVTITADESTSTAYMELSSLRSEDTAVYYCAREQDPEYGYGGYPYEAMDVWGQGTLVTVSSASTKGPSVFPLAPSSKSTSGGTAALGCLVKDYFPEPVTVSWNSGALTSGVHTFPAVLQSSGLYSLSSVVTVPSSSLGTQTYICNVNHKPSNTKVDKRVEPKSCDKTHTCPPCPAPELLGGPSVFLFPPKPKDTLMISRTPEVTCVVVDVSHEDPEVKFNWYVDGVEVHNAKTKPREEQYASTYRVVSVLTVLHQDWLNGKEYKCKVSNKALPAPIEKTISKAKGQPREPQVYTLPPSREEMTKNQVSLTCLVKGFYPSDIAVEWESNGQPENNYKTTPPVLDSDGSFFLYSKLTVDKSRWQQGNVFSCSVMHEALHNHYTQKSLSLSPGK
light: SYELTQPLSVSVALGQTARITCSGDNIPQHSVHWYQQKPGQAPVLVIYDDTERPSGIPERFSGSNSGNTATLTISRAQAGDEADYYCSSWDSSMDSVVFGGGTKLTVLGQPKAAPSVTLFPPSSEELQANKATLVCLISDFYPGAVTVAWKADSSPVKAGVETTTPSKQSNNKYAASSYLSLTPEQWKSHRSYSCQVTHEGSTVEKTVAPTECS
notes: Human IgG1 with N297A (Fc silent); also called Fc silent NOV1216
binding affinity (printed 'BJABs:') [1]: 0.7 nM
binding affinity [2]: 1.4 nM
binding result [3]: binds

B4: afucosylated NOV2108 (antibody, human IgG1, lambda)
heavy: not shown
light: SYELTQPLSVSVALGQTARITCSGDNIPQHSVHWYQQKPGQAPVLVIYDDTERPSGIPERFSGSNSGNTATLTISRAQAGDEADYYCSSWDSSMDSVVFGGGTKLTVLGQPKAAPSVTLFPPSSEELQANKATLVCLISDFYPGAVTVAWKADSSPVKAGVETTTPSKQSNNKYAASSYLSLTPEQWKSHRSYSCQVTHEGSTVEKTVAPTECS
modifications: afucosylated: N-glycan structure lacking core fucose
notes: also called NOV2108, afucosylated antibody; NOV2108 (afucosylated format)
Kd (huCD32b-deglyco [4]): 16 nM
koff (huCD32b-deglyco [4]): 0.11 s⁻¹
kon (huCD32b-deglyco [4]): 6.8e+06 M⁻¹ s⁻¹

B5: NOV2112 N297A (antibody, human IgG1, lambda, N297A)
heavy chain: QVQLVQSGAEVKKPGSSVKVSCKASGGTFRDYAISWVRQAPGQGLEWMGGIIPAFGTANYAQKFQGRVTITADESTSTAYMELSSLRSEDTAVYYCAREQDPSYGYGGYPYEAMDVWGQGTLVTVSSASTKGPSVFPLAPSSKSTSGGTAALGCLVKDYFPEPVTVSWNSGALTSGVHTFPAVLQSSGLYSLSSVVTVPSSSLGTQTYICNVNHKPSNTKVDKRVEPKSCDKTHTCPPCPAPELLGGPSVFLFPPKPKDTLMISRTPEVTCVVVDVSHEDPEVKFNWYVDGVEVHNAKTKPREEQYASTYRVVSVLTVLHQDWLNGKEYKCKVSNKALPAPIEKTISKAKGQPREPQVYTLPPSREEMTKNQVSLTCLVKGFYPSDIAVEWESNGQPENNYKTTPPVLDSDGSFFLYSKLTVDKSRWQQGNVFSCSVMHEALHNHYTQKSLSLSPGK
light chain: SYELTQPLSVSVALGQTARITCSGDNIPQHSVHWYQQKPGQAPVLVIYDDTERPSGIPERFSGSNSGNTATLTISRAQAGDEADYYCSSWDSSMDSVVFGGGTKLTVLGQPKAAPSVTLFPPSSEELQANKATLVCLISDFYPGAVTVAWKADSSPVKAGVETTTPSKQSNNKYAASSYLSLTPEQWKSHRSYSCQVTHEGSTVEKTVAPTECS
binding result [5]: binds

B6: NOV2107_N297A (antibody, human IgG1, lambda, N297A)
heavy: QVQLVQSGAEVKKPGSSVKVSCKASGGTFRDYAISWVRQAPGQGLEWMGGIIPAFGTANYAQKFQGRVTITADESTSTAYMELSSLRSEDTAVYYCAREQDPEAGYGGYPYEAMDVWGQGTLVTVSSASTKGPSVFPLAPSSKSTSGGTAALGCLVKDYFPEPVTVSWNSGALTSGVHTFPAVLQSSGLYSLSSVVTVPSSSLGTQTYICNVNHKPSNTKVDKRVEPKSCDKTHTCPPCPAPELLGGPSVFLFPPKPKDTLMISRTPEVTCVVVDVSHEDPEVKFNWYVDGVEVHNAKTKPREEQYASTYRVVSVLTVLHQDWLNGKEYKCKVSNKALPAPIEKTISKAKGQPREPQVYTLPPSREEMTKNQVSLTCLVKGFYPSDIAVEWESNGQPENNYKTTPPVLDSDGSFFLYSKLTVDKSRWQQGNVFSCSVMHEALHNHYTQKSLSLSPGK
light: SYELTQPLSVSVALGQTARITCSGDNIPQHSVHWYQQKPGQAPVLVIYDDTERPSGIPERFSGSNSGNTATLTISRAQAGDEADYYCSSWDSSMDSVVFGGGTKLTVLGQPKAAPSVTLFPPSSEELQANKATLVCLISDFYPGAVTVAWKADSSPVKAGVETTTPSKQSNNKYAASSYLSLTPEQWKSHRSYSCQVTHEGSTVEKTVAPTECS
notes: CDR-H3 mutant of NOV1216; human IgG1 with N297A; also called Fc silent N297A variant of NOV2107
binding result [5]: binds

B7: NOV2108_N297A (antibody, human IgG1, lambda, N297A)
heavy: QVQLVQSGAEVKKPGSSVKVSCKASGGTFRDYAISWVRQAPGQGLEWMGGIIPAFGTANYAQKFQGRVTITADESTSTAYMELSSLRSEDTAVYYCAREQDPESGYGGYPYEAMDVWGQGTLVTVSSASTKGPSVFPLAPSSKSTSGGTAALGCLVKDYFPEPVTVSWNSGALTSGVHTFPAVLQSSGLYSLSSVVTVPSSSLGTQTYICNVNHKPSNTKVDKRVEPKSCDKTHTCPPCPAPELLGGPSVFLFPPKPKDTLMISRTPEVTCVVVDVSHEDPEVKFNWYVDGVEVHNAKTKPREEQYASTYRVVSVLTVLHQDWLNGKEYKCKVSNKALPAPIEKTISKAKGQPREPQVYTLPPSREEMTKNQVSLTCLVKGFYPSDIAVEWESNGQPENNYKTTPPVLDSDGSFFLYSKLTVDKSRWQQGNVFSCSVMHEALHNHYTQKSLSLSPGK
light: SYELTQPLSVSVALGQTARITCSGDNIPQHSVHWYQQKPGQAPVLVIYDDTERPSGIPERFSGSNSGNTATLTISRAQAGDEADYYCSSWDSSMDSVVFGGGTKLTVLGQPKAAPSVTLFPPSSEELQANKATLVCLISDFYPGAVTVAWKADSSPVKAGVETTTPSKQSNNKYAASSYLSLTPEQWKSHRSYSCQVTHEGSTVEKTVAPTECS
notes: CDR-H3 mutant of NOV1216; human IgG1 with N297A; Alexa Fluor 647-labelled in flow cytometry; also called Fc silent NOV2108 [N297A]
Kd (huCD32b-deglyco [6]): 18 nM
koff (huCD32b-deglyco [6]): 0.29 s⁻¹
kon (huCD32b-deglyco [6]): 1.5e+07 M⁻¹ s⁻¹

B8: NOV1218 (antibody, human IgG1, lambda, N297A)
heavy chain: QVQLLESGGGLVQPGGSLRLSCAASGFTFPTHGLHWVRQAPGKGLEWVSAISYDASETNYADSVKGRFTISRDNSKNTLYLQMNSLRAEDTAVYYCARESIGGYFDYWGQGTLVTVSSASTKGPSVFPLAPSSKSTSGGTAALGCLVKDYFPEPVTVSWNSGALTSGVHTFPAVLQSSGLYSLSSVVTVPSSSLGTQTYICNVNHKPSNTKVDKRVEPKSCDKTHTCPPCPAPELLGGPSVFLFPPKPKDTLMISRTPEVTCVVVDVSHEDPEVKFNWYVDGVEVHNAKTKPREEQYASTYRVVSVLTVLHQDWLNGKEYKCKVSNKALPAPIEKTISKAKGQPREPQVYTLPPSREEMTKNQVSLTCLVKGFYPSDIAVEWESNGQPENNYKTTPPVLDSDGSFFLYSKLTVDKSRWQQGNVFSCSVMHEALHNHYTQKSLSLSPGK
light chain: SYELTQPLSVSVALGQTARITCSGDALGKNTVSWYQQKPGQAPVLVIYDDTDRPSGIPERFSGSNSGNTATLTISRAQAGDEADYYCSSTDLSTVVFGGGTKLTVLGQPKAAPSVTLFPPSSEELQANKATLVCLISDFYPGAVTVAWKADSSPVKAGVETTTPSKQSNNKYAASSYLSLTPEQWKSHRSYSCQVTHEGSTVEKTVAPTECS
notes: also called NOV1218_N297A; NOV1218 N297A
binding affinity (printed 'BJABs:') [1]: 19 nM
binding result (MW82 (huCD32a H131)): binds
binding result [3]: binds
